Where a chain is given by its changes, count along the chain named. In names and notes the source's numbering stands.
Experiments:
tepsin (Homo sapiens) = tepsin (Homo sapiens) (UniProt Q96N21); conditions: cited from earlier work
[1] = target: T1, AP4 β4 C-terminal appendage domain (residues 612–739), wild type (UniProt Q9Y6B7 612-739); test: pull-down
T1 sequence (looked up): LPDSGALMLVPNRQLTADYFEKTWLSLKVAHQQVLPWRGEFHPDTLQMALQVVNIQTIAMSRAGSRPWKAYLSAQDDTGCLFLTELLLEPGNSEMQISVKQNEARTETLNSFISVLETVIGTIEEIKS

[2] = target: T1, AP4 β4 C-terminal appendage domain …; test: ITC

Molecule: AP4 ε appendage domain (from UniProt Q9UPM8)
- Kd (tepsin (Homo sapiens)): 3 µM

B1: GST-tepsin (residues 450–525) (domain or fragment, UniProt Q96N21 450-525, looked up)
chain: PGGTDSPKRGPSSCAWSRDSLFAGMELVACPRLVGAGAAAGESCPDAPRAPQTSSQRTAAKEPPGSEPSAFAFLNA
- binding result [1]: binds

B2: tepsin C-terminal fragment (residues 450–500), GST removed (domain or fragment, UniProt Q96N21 450-500, looked up)
chain: PGGTDSPKRGPSSCAWSRDSLFAGMELVACPRLVGAGAAAGESCPDAPRAP
- Kd [2]: 2.9 µM
- stoichiometry N [2]: 1

B3: tepsin fragment (residues 450–500) L476S/V477S, GST removed (domain or fragment, UniProt Q96N21 450-500, looked up)
chain: B2 chain with L27S, V28S
- fold weaker binding than wild type [2]: ~15 fold

B4: tepsin fragment (residues 450–500) G473I/M474Q, GST removed (domain or fragment, UniProt Q96N21 450-500, looked up)
chain: B2 chain with G24I, M25Q
- Kd [2]: > 300 µM

B5: tepsin fragment (residues 450–500) L470S/F471S, GST removed (domain or fragment, UniProt Q96N21 450-500, looked up)
chain: B2 chain with L21S, F22S
- Kd [2]: > 300 µM

From article PMC4805503 (Traffic (Copenhagen, Denmark), 2016)
